Test results taken from patent US20240425583A1, “METHODS AND COMPOSITIONS RELATED TO MCL-1 AND BIM HETERODIMER ANTIBODIES” (priority 2021, published 2024).

Key:
Mcl-1 Bim-BH3 complex = target: T1, Mcl-1 Bim-BH3 complex (Homo sapiens, UniProt Q07820); assay: HSMCB on Mcl-1-Bim non-covalently bound beads; type: binding; conditions: Bim-BH3 10 uM to 50 uM, FIG. 14
T1 construct: mutated to delete their transmembrane domains; made in house; host or cells: E. coli BL21 (D3)

MCL-1/BIM heterodimer = target: T2, MCL-1/BIM heterodimer (Homo sapiens, UniProt Q07820); assay: ELISA: Mcl-1-GST on glutathione-coated plates with or without Bim-BH3 peptide, detected with HSMCB antibody; type: binding; conditions: Mcl-1-GST with or without Bim-BH3 peptide, FIG. 1
T2 construct: mutated to delete their transmembrane domains; made in house; host or cells: E. coli BL21 (D3)
T2 sequence (Q07820 1-327 limits assumed): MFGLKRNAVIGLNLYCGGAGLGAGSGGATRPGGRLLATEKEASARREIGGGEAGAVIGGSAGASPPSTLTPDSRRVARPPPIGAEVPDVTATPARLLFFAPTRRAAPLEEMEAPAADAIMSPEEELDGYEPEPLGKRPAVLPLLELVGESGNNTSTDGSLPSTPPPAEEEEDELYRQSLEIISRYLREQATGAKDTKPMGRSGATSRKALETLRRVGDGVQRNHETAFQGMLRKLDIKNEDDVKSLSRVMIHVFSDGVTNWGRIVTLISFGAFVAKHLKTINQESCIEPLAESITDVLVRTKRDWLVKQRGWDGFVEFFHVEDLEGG
T2 sequence (O43521 146-166 partner limits assumed): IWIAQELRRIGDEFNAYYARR
Description: Genes encoding human Mcl-1 were cloned and mutated to delete their transmembrane domains. The mutated genes were then linked to a nucleotide sequence encoding Glutathione-S-transferase (GST) and cloned into pGEX 4T-1 to obtain DNA constructs for expressing Mcl-1(Δ)-GST fusion proteins. DNA constructs for expressing full length human Bim, all fused with GST, were prepared by recombinant technology.
The plates were then washed three times with PBS containing 0.05% TWEEN 20™ (PBST) and blocked with 50 μl PBS containing 2.0% bovine serum albumin (BSA) at room temperature for 1 hour. The plates were then washed again three times with PBST. Afterwards, 100 μl of a hybridoma supernatant was added to designated wells. The plates were incubated at room temperature for 1 hour on a shaker apparatus and then washed three times with wash buffer. Next, 50 μl of HRP-conjugated goat anti-mouse IgG Fc (Cappel Laboratories), diluted 1:1000 in assay buffer (0.5% bovine serum albumin, 0.05% % TWEEN 20™, 0.01% Thimersol in PBS), was added to each well. […] 50 μl of […] was added to each well to stop the reaction and absorbance at 450 nm in each well is read in a microliter plate reader. […]

[1] = type: physicochemical
Description: FIG. 2 is a graph showing the selective binding of the MCL-1/BIM heterodimer (HSMCB) antibody to the MCL-1/BIM heterodimer, and the stability of this antibody at 4° C. for about 2 months. Each line in the graph follows the order in the legend (i.e., the top line is for sample 5-01-20b, the next line is for 5-22-20b, the next line is for 5-29b; this pattern is throughout the entire graph). The antibody in this figure is an antibody having CDRs selected from SEQ ID NO: 9, SEQ ID NO: 10, SEQ ID NO: 11, SEQ ID NO: 12, SEQ ID NO: 13, SEQ ID NO: 14, and having a variable heavy chain selected from SEQ ID NO: 15, and a variable light chain selected from SEQ ID NO: 16. […]

[2] = system: FFPE breast cancer patient biopsy (BCa_01 NV401); assay: IHC staining of serial sections from a FFPE breast cancer patient biopsy; parameters: species or system human; conditions: compared with HSBXB, 10× objective, FIG. 8
Description: The image on the left side of FIG. 8 is of an HSMCB antibody having CDRs selected from SEQ ID NO: 9, SEQ ID NO: 10, SEQ ID NO: 11, SEQ ID NO: 12, SEQ ID NO: 13, SEQ ID NO: 14, and having a variable heavy chain selected from SEQ ID NO: 15, and a variable light chain selected from SEQ ID NO: 16.
In these experiments, PDX stains were used for image analysis software from Leica and Halo were compared for quantitative analysis.

T1 sequence (Q07820 1-327 limits assumed): as the sequence (Q07820 1-327 limits assumed) above

Molecule | recognition of Mcl-1 Bim-BH3 complex on beads (Mcl-1 Bim-BH3 complex) | selective binding to the MCL-1/BIM heterodimer versus monomer (MCL-1/BIM heterodimer) | stability of the antibody at 4° C. [1] | IHC reactivity with tissue sample [2]
HSMCB (SEQ ID NO: 7, SEQ ID NO: 8): MCL-1/BIM heterodimer antibody, CDRs SEQ ID NO: 1-6, variable heavy chain SEQ ID NO: 7, variable light chain SEQ ID NO: 8 (antibody, V domains shown) VH: MNFGLSLIFLVLVLKGVQCEVQLVESGGDLVKPGGSLKLSCAVSGFTFSSYAMSWVRQTPAKRLEWVATISSGGFATYYPDTVKGRFTISRDNAKNTLYLQMSSLRSEDTAMYYCARHGGGSYGWFAYWGQGTLVTVSE VL: MLSLAPLLSLLLLCVSDSRAETTVTQSPASLSVATGEKVTIRCITSTDIDDDMNWYQQKPGEPPKLLISEGNTLRPGVPSRFSSSGYGTDFVFTIENTLSEDFADYYCLQSDNMPYTFGGGTKLEIK | recognize the Mcl-1 Bim-BH3 complex at a significant level | preferentially react with the heterodimer and not to the monomer | – | –
HSMCB (SEQ ID NO: 15, SEQ ID NO: 16): MCL-1/BIM heterodimer antibody, CDRs SEQ ID NO: 9-14, variable heavy chain SEQ ID NO: 15, variable light chain SEQ ID NO: 16 (antibody, V domains shown) VH: MDWIWIMLHLLAAATGLQSQVHLQQSGSELRSPGSSVKLSCKDFDSEVFPIAYMSWVRQKPGHGFEWIGDILPSIGRTIYGEKFEDKATLDADTVSNTAYLELNSLTSEDSAIYYCARQDTYYAMDYWGQGTSVTVSS VL: MHFQVQIFSFLLISASVIMSRGQIVLTQSPAIMSASPGEKVTITCSASSSVSYMHWVQQKPGTSPKLWIYSTSNLASGVPARFRGSGSGTSYSLTISRMEAEDAATYYCQQRSSYPYTFGGGTKLEIK | – | preferentially react with the heterodimer and not to the monomer | about 2 months | higher reactivity
